Assays:
[1] = molecular target: Endogenous NOTCH1 (MDA-MB-231 cell lysate) (UniProt P46531 19-2555, limits assumed); assay: co-immunoprecipitation of endogenous proteins, MDA-MB-231 lysates, Western blot
Procedure: (§1) Notch receptor activation can be regulated through direct interactions with binding partners²⁴. […] To address this possibility, co-immunoprecipitation experiments were performed using MBA-MD-231 cells lysates, which express detectable levels of all four Notch receptors (NOTCH1-4). Endogenous ROBO1 co-immunoprecipitated with NOTCH4, but not […], NOTCH2 or NOTCH3 (FIG. 3H and data not shown). Next, the expression and subcellular localization of the NOTCH4 intracellular domain (N4-ICD) and HES1 was examined in control (Scr) and Robo1 (siR1) knockdown HC11 cells. Expression of Robo1 was inhibited in HC11 cells that were then primed for differentiation as described above. […] This effect was not observed in control Robo1 knockdown cells engineered to overexpress Robo1 (siR1+o/e) or cells treated with the γ-secretase inhibitor GSI (siR1+GSI) (FIGS. 3I-3K).
(§2) Adherent cells were lysed in 1 mL of 1× lysis buffer ([…] NaCl, 10 mM Tris-HCl pH8, […] EDTA, 1 mM sodium orthovanadate) supplemented with 1 percent Igepal NP40 (Sigma), 1 mM phenylmethanesulfonylfluoride (PMSF), 1 mM leupeptin, 1 mM aprotinin, and phosphatase inhibitors (Roche Complete). Cell lysate was incubated for 15 minutes at 4° C. with gentle rocking followed by centrifugation at 12,000 rpms for 10 minutes. […]

[2] = molecular target: Endogenous NOTCH3 (MDA-MB-231 cell lysate) (UniProt Q9UM47 40-2321, limits assumed); assay: co-immunoprecipitation of endogenous proteins, MDA-MB-231 lysates (data not shown)
Sequence of Endogenous NOTCH3 (MDA-MB-231 cell lysate) (Q9UM47 40-2321 limits assumed): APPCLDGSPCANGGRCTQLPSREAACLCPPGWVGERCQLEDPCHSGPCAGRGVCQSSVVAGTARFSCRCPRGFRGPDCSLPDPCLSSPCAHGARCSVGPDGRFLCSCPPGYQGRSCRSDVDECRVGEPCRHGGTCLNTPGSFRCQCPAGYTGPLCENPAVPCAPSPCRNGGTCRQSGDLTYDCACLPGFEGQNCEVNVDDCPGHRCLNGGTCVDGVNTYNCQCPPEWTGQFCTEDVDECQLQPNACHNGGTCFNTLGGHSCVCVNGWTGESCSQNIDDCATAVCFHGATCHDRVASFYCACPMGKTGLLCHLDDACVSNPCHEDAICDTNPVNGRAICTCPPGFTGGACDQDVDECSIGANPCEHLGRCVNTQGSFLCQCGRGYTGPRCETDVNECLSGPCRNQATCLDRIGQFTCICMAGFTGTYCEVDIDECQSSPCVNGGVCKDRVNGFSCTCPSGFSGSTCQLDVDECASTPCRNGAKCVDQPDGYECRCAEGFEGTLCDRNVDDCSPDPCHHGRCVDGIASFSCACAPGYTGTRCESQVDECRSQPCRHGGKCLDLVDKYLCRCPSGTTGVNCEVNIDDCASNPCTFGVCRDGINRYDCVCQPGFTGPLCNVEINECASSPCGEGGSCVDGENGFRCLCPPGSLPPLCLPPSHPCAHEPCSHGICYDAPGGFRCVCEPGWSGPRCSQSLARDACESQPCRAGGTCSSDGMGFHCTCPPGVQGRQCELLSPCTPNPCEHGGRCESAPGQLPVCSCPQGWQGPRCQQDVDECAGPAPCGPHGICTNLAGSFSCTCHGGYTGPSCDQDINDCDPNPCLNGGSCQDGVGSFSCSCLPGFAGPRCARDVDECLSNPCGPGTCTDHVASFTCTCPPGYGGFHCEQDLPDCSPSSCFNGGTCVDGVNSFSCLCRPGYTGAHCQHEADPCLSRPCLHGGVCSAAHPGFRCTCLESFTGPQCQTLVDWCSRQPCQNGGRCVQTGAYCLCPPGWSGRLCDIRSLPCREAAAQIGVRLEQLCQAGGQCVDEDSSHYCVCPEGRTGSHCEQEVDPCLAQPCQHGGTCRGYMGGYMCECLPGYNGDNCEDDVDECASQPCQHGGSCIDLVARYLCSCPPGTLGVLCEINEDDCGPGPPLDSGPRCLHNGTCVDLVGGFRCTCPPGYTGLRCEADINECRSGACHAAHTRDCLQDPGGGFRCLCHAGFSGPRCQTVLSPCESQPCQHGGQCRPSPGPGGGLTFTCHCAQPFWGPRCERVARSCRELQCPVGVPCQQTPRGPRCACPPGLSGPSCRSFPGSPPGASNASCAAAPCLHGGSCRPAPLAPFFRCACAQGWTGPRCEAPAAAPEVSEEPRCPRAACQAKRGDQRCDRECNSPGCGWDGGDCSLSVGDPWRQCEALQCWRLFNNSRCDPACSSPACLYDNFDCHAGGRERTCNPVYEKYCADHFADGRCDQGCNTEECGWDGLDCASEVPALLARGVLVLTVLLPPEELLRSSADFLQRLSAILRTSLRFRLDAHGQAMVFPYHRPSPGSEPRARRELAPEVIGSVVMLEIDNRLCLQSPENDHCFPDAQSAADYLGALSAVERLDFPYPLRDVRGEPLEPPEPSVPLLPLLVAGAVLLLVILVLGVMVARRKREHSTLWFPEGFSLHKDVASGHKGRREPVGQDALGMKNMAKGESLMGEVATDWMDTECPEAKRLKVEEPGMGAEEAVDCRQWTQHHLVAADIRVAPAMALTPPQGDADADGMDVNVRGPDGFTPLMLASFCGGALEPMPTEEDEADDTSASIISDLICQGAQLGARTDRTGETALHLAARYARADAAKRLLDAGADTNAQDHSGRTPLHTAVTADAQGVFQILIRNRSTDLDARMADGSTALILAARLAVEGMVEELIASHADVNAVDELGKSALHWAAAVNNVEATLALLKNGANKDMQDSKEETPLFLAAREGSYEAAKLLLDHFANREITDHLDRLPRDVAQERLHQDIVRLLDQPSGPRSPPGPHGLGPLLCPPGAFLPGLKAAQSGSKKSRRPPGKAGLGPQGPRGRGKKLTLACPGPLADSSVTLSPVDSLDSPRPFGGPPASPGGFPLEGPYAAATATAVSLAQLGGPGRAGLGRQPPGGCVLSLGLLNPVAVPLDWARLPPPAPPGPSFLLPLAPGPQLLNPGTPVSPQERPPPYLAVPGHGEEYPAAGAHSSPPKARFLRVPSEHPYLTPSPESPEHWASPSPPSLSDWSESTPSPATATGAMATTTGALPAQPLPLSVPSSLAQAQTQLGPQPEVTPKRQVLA
Procedure: as §1, §2

[3] = molecular target: Endogenous NOTCH2 (MDA-MB-231 cell lysate) (UniProt Q04721 26-2471, limits assumed); assay: as above
Sequence of Endogenous NOTCH2 (MDA-MB-231 cell lysate) (Q04721 26-2471 limits assumed): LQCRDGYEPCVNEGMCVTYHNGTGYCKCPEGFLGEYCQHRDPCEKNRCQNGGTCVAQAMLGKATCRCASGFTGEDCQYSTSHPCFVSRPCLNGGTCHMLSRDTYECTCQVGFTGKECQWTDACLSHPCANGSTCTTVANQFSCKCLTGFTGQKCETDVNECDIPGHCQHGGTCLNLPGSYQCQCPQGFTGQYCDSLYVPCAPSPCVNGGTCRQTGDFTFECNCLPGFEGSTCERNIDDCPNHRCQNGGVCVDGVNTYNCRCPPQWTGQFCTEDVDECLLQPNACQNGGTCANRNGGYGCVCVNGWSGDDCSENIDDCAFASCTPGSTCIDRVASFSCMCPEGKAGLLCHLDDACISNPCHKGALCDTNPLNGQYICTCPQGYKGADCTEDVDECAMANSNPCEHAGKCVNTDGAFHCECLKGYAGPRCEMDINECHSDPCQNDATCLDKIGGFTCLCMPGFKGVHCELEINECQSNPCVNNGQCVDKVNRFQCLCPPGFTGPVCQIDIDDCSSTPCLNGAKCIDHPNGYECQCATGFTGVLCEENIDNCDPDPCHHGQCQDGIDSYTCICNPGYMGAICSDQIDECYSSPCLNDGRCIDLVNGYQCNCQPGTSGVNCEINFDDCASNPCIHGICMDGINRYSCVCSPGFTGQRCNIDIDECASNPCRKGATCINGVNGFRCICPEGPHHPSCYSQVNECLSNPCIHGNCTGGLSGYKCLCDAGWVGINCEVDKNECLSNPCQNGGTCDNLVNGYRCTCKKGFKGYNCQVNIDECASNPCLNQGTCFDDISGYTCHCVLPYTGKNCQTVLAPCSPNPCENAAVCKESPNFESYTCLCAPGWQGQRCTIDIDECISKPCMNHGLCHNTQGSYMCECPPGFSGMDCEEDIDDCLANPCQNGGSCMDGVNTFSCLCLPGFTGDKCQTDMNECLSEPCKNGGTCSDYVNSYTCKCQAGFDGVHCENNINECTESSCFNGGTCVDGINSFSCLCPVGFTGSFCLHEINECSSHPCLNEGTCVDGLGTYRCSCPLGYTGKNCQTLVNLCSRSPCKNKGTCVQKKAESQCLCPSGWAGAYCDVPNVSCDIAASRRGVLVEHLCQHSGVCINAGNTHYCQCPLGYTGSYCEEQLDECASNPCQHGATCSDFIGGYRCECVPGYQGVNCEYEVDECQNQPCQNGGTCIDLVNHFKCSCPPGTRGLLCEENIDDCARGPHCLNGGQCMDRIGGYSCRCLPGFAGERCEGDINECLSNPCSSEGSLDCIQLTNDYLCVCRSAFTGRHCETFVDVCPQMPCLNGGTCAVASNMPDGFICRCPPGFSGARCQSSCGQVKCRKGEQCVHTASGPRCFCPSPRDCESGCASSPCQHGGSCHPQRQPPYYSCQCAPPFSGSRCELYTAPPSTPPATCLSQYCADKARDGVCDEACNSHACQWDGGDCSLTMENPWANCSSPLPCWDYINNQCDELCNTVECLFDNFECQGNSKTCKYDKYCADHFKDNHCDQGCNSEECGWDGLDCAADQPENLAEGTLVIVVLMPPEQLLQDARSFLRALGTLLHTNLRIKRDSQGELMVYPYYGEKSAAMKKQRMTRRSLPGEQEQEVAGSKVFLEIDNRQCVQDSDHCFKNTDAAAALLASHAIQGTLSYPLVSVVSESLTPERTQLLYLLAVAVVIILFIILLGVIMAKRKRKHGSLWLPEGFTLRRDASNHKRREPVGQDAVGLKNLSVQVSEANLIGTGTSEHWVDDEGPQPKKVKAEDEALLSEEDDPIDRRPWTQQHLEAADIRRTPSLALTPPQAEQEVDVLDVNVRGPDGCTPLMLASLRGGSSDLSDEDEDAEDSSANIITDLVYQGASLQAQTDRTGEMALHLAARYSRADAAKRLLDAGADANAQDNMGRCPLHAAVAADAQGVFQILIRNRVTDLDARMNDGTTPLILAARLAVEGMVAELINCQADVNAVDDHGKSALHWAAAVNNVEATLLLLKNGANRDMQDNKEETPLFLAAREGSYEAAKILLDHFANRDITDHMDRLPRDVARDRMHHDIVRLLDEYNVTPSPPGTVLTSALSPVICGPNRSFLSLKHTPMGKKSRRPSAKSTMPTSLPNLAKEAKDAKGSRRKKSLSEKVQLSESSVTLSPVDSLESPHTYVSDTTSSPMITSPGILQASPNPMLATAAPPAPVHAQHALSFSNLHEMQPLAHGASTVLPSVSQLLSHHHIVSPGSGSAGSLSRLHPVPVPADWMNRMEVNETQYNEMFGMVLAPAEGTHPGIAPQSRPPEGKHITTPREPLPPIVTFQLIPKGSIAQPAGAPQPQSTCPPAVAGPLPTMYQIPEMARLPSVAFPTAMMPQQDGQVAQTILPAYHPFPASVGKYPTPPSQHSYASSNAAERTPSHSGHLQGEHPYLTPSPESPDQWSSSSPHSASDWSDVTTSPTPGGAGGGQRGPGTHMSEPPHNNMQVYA
Procedure: as §1, §2

Measured: binding result

B1: Endogenous ROBO1 (MDA-MB-231 and HEK293 cell lysates) (receptor, UniProt Q9Y6N7 26-1651, looked up)
chain: QLIPDPEDVERGNDHGTPIPTSDNDDNSLGYTGSRLRQEDFPPRIVEHPSDLIVSKGEPATLNCKAEGRPTPTIEWYKGGERVETDKDDPRSHRMLLPSGSLFFLRIVHGRKSRPDEGVYVCVARNYLGEAVSHNASLEVAILRDDFRQNPSDVMVAVGEPAVMECQPPRGHPEPTISWKKDGSPLDDKDERITIRGGKLMITYTRKSDAGKYVCVGTNMVGERESEVAELTVLERPSFVKRPSNLAVTVDDSAEFKCEARGDPVPTVRWRKDDGELPKSRYEIRDDHTLKIRKVTAGDMGSYTCVAENMVGKAEASATLTVQEPPHFVVKPRDQVVALGRTVTFQCEATGNPQPAIFWRREGSQNLLFSYQPPQSSSRFSVSQTGDLTITNVQRSDVGYYICQTLNVAGSIITKAYLEVTDVIADRPPPVIRQGPVNQTVAVDGTFVLSCVATGSPVPTILWRKDGVLVSTQDSRIKQLENGVLQIRYAKLGDTGRYTCIASTPSGEATWSAYIEVQEFGVPVQPPRPTDPNLIPSAPSKPEVTDVSRNTVTLSWQPNLNSGATPTSYIIEAFSHASGSSWQTVAENVKTETSAIKGLKPNAIYLFLVRAANAYGISDPSQISDPVKTQDVLPTSQGVDHKQVQRELGNAVLHLHNPTVLSSSSIEVHWTVDQQSQYIQGYKILYRPSGANHGESDWLVFEVRTPAKNSVVIPDLRKGVNYEIKARPFFNEFQGADSEIKFAKTLEEAPSAPPQGVTVSKNDGNGTAILVSWQPPPEDTQNGMVQEYKVWCLGNETRYHINKTVDGSTFSVVIPFLVPGIRYSVEVAASTGAGSGVKSEPQFIQLDAHGNPVSPEDQVSLAQQISDVVKQPAFIAGIGAACWIILMVFSIWLYRHRKKRNGLTSTYAGIRKVPSFTFTPTVTYQRGGEAVSSGGRPGLLNISEPAAQPWLADTWPNTGNNHNDCSISCCTAGNGNSDSNLTTYSRPADCIANYNNQLDNKQTNLMLPESTVYGDVDLSNKINEMKTFNSPNLKDGRFVNPSGQPTPYATTQLIQSNLSNNMNNGSGDSGEKHWKPLGQQKQEVAPVQYNIVEQNKLNKDYRANDTVPPTIPYNQSYDQNTGGSYNSSDRGSSTSGSQGHKKGARTPKVPKQGGMNWADLLPPPPAHPPPHSNSEEYNISVDESYDQEMPCPVPPARMYLQQDELEEEEDERGPTPPVRGAASSPAAVSYSHQSTATLTPSPQEELQPMLQDCPEETGHMQHQPDRRRQPVSPPPPPRPISPPHTYGYISGPLVSDMDTDAPEEEEDEADMEVAKMQTRRLLLRGLEQTPASSVGDLESSVTGSMINGWGSASEEDNISSGRSSVSSSDGSFFTDADFAQAVAAAAEYAGLKVARRQMQDAAGRRHFHASQCPRPTSPVSTDSNMSAAVMQKTRPAKKLKHQPGHLRRETYTDDLPPPPVPPPAIKSPTAQSKTQLEVRPVVVPKLPSMDARTDRSSDRKGSSYKGREVLDGRQVVDMRTNPGDPREAQEQQNDGKGRGNKAAKRDLPPAKTHLIQEDILPYCRPTFPTSNNPRDPSSSSSMSSRGSGSRQREQANVGRRNIAEMQVLGGYERGEDNNEELEETES
notes: Endogenous full-length receptor in detergent cell lysate, immunoprecipitated with an anti-ROBO1 antibody; Human is inferred from the cell lines; also called R1
no binding: all assays above
